# Data from patent US20210395381A1.
# Positions count from the first letter of the chain named.
# B1: Clone 8.17 (VNAR)
# VNAR: ARVDQTPQTITKETGESLTINCVLRDSNCALPSTYWYRKKSGSTNEESISKGGRYVETVNSGSKSFSLRINDLTVEDSGTYRCKVIAYRKSIVRGCNYRKHDVYGDGTAVTVNA
# B2: Clone 8.97 (VNAR)
# VNAR: B1 VNAR with Y88Q, R89L, K90S, V93L, R99N, K100I, H101D
# B3: Clone 8.137 (VNAR)
# VNAR: B1 VNAR with Y88Q, R89L, K90S, V93L, R99F, K100G, H101K
# Target: recombinant mouse TfR-1 (mouse) (UniProt Q62351)
# Test: phage ELISA
# Sequence of recombinant mouse TfR-1 (mouse) (Q62351 89-763 limits assumed): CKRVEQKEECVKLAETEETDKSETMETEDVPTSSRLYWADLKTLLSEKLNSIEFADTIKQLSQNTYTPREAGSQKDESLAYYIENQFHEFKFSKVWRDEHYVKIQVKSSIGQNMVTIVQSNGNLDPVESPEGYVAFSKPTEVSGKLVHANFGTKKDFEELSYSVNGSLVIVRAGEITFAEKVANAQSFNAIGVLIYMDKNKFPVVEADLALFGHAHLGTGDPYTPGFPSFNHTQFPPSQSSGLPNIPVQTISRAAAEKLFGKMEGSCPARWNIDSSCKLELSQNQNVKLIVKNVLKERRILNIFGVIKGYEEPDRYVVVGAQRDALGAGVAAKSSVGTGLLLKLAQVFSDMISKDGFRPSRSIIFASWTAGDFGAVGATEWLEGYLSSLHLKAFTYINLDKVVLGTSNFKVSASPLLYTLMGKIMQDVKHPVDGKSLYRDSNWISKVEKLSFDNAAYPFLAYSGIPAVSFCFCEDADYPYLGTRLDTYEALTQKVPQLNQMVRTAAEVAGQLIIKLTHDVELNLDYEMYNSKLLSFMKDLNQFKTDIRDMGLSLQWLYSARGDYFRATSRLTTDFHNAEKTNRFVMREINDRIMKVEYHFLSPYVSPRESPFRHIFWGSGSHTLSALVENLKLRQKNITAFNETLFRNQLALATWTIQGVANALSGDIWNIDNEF
row,Binder,A450 [A450]
1,B1,0.091
2,B2,0.053
3,B3,0.046
